Data published in US20100183625A1, “Treatment of Mucositis with Kallikrein Inhibitors” (Dyax Corp., priority 2009, published 2010).
Residue numbers refer to the chain shown, from its start.

B1: X68-E12: single point mutation of M142-H08 (P3); HV-CDR3 GGLLLCFRELKSNYFDY (antibody, V domains shown)
VL: QDIQMTQSPSSLSAFVGDRVTITCRASQPIDNYLNWYHQKPGKAPKLLIYAASRLQSGVPSRLSGSGFGTDFTLTISSLQPEDFGNYYCQQSYTVPYTFGGGTKVEIR
VH: EVQLLESGGGLVQPGGSLRLSCAASGFTFSAYSMIWVRQAPGKGLEWVSYIRPSGGRTTYADSVKGRFTISRDNSKNTLYLQMNSLRAEDTAVYYCARGGLLLCFRELKSNYFDYWGQGTLVTVSSASTKGPSVFPLAPSSKS
B2: X68-A12: single point mutation of M142-H08 (P3); HV-CDR3 GGLLLGFRELKSNYFDY (antibody, V domains shown)
VL: B1 VL
VH: B1 VH with C104G
B3: X68-G01: single point mutation of M142-H08 (P3); HV-CDR3 GGLLLRFRELKSNYFDY (antibody, V domains shown)
VL: B1 VL
VH: B1 VH with C104R
B4: X68-E03: single point mutation of M142-H08 (P3); HV-CDR3 GGLLLEFRELKSNYFDY (antibody, V domains shown)
VL: B1 VL
VH: B1 VH with C104E
B5: X68-E01: single point mutation of M142-H08 (P3); HV-CDR3 GGLLLLFRELKSNYFDY (antibody, V domains shown)
VL: B1 VL
VH: B1 VH with C104L
B6: X68-F05: single point mutation of M142-H08 (P3); HV-CDR3 GGLLLMFRELKSNYFDY (antibody, V domains shown)
VL: B1 VL
VH: B1 VH with C104M
B7: X69-H10: single point mutation of M142-H08 (P1′); HV-CDR3 GGLLLWFRYLKSNYFDY (antibody, V domains shown)
VL: B1 VL
VH: B1 VH with C104W, E107Y
B8: X68-D10: single point mutation of M142-H08 (P3); HV-CDR3 GGLLLPFRELKSNYFDY (antibody, V domains shown)
VL: B1 VL
VH: B1 VH with C104P
B9: X68-A03: single point mutation of M142-H08 (P3); HV-CDR3 GGLLLDFRELKSNYFDY (antibody, V domains shown)
VL: B1 VL with G85S
VH: B1 VH with C104D
B10: X68-F10: single point mutation of M142-H08 (P3); HV-CDR3 GGLLLQFRELKSNYFDY (antibody, V domains shown)
VL: B1 VL
VH: B1 VH with C104Q
B11: X68-D11: single point mutation of M142-H08 (P3); HV-CDR3 GGLLLKFRELKSNYFDY (antibody, V domains shown)
VL: B1 VL
VH: B1 VH with C104K

Biological target: T1, pKal (Homo sapiens, UniProt P03952)
T1 construct: two disulfide linked polypeptides; a heavy chain of approximately 52 kDa and a catalytic domain of approximately 34 kDa; host or cells: human plasma
Experiment: Fab fragments (small scale) tested for inhibition against human pKal in an in vitro protease cleavage assay
Format: biochemical
Settings: Table 9
Protocol: By DNA sequencing, we recovered 61 of the possible 80 antibodies (Table 9). These antibodies were produced as Fab fragments in small scale (˜20 μg) and tested for inhibition against human pKal in an in vitro protease cleavage assay using Pro-Phe-Arg-aminomethylcoumarin as the synthetic peptide substrate. […] Five antibodies were then expressed in 293T cells and purified by protein A sepharose chromatography. The antibodies were analyzed by SDS-PAGE to determine which of the inhibitory mutants are not cleaved by the host cell protease(s) (data not shown).

T1 sequence (P03952 391-638 limits assumed): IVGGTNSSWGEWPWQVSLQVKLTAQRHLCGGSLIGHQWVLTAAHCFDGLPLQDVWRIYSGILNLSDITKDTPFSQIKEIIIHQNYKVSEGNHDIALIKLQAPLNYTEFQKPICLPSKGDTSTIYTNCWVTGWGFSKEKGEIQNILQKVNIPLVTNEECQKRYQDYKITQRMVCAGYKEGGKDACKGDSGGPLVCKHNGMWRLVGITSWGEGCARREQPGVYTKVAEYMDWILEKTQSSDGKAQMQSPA
T1 sequence (P03952 20-390 partner limits assumed): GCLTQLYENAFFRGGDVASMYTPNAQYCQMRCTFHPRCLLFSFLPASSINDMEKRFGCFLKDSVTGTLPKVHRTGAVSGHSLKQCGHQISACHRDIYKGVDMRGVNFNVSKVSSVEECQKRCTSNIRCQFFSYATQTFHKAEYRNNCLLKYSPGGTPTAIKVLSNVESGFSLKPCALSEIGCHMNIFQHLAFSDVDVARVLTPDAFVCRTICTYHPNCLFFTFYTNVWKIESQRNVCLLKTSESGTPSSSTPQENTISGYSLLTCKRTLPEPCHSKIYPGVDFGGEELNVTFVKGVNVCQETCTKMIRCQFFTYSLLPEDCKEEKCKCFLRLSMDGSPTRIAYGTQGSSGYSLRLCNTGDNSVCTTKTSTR

Molecule	Inhibit as a Fab?
B1	No
B2	No
B3	No
B4	No
B5	Yes
B6	No
B7	No
B8	No
B9	No
B10	No
B11	No
